This passage reports binding results from patent US20090275637.

Bounds are passed on as bounds.

The target of the series is T1, PTP1B catalytic domain (321 residues), GST fusion (Homo sapiens) (UniProt P18031).
T1 sequence: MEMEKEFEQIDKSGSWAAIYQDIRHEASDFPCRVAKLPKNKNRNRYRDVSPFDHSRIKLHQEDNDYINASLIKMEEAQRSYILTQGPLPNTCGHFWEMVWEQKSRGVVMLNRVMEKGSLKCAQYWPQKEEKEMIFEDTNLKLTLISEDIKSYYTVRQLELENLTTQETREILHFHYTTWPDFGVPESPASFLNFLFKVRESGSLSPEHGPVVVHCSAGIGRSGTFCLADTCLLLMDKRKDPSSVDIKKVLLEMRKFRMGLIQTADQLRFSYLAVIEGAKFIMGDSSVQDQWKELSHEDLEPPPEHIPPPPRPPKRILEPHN
The experiment in a line: filter. The note with it: round 0 pool, 200-400 nM PTP1B, 125 mM NaCl, 5 mM MgCl2.

On to “GGGAAUGGAUCCACAUCUACGAAUUCNNNNNNNNNNNNNNNNNNNNNNNNNNNNNNUUCACUGCAGACUUGACGAAGCUU [N30 initial pool]”, for which the binding is < 1 % retained.
